Earlier results on two substances are cited in PMC3166974.

Series [1] deals with PKR (Homo sapiens) (UniProt P19525).
Series [2] has as its target SecA (Escherichia coli) (UniProt P10408).

For PKR (from UniProt P19525), the Kd in series [1] is 500 µM.

For the substance SecA (from UniProt P10408), the Kd in series [2] was 18.6 µM.

The term Kd denotes the concentration at which binding is half-saturated.
